Data taken from article PMC9337993.
Blank lines part the entries; values can stand above or below the substance they belong to.

Legend:
[1] = target: Cys95Ala SynZur (Synechococcus sp. WH8102); experiment: SEC; analytical SEC, Superdex 200 10/300, 0.5 ml/min; Zn2SynZur 40 uM, Cys95Ala SynZur 30 uM, in 20 mM Tris-HCl pH 8, 300 mM NaCl; methods give 50 mM Tris pH 8.0, 100 mM NaCl
[2] = target: Cys95Ala SynZur (Synechococcus sp. WH8102); experiment: native MS; native (near-native) ESI-MS, deconvoluted; WT after EDTA treatment (Zn1SynZur), Cys95Ala as purified
[3] = target: T1, Cys95Ala SynZur C95A (Synechococcus sp. WH8102) (UniProt Q7U3N0); experiment: EMSA; settings: EMSA: 10 mM Tris pH 8, 50 mM KCl, 2 mM MgCl2, 5% glycerol, 0.05 mg/ml BSA, 1 mM DTT, 3 mM spermidine, 5 ng DNA in 10 ul, room temperature 30 min, gel at 4 C …
T1 sequence: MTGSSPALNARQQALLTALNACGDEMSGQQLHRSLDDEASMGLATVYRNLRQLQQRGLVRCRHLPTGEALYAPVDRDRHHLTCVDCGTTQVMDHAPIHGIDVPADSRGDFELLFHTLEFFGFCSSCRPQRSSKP

[4] = target: SynZur (SYNW2401), zinc uptake regulator Zur from Synechococcus sp. WH8102 (Synechococcus sp. WH8102); experiment: dynamic light scattering; 20 uM protein in 50 mM Tris, 25 °C; hydrodynamic diameter compared with values calculated for monomers, dimers and tetramers
[5] = target: SynZur (SYNW2401), zinc uptake regulator Zur from Synechococcus sp. WH8102 (Synechococcus sp. WH8102); experiment: nondenaturing SDS-PAGE; 10% Tris-glycine gel, 50 mM Tris pH 7.3, 50 mM MOPS, 0.0375% SDS, 4 °C, 100 V
[6] = target: SynZur (SYNW2401), zinc uptake regulator Zur from Synechococcus sp. WH8102 (Synechococcus sp. WH8102); experiment: native MS; native (near-native) ESI-MS, deconvoluted; WT after EDTA treatment (Zn1SynZur), Cys95Ala as purified
[7] = target: SynZur (SYNW2401), zinc uptake regulator Zur from Synechococcus sp. WH8102 (Synechococcus sp. WH8102); experiment: crystal structure; X-ray, 2.1 Å, space group P65, four molecules (two dimers) in the asymmetric unit; 100 mM magnesium acetate, 100 mM MES pH 6, 16% PEG 10000, 4 °C

- stoichiometry N [1]: 2
- stoichiometry N [2]: 2
Substance: Cys95Ala SynZur (natural protein)

Substance: GTTCCATCCACAGCCACAACGCTTGGCTGGGCCGCCTGCGCCGCGACTGAACAACCCGAGACAACGCCCAGGGCGACCGCCAGACCCTTGACCAAAAGCGCAGGACGCGCCATGACACTCGAATGAGAATGATTATCATTTTTACAGTTCAACGGGTTGGCGCAACCCAATCGCGACCGCATGATGAAGTGAACCCACCGCAGCTGTGACAGAACCGCATTCGTCCATCAAGGGGCATCTAGCAGCCAGGAATCTC (double strand) [PznuA promoter (znuC-znuA intergenic fragment)]
- binding [3]: no binding

- stoichiometry N [4]: 2
- stoichiometry N [5]: 2
- stoichiometry N [6]: 2
- stoichiometry N [7]: 2
Substance: SynZur (SYNW2401), zinc uptake regulator Zur from Synechococcus sp. WH8102 (natural protein)
